This is an account of results in paper doi:10.1101/2025.09.16.676304, “FoxP3 forms a head-to-head dimer in vivo and stabilizes its multimerization on adjacent microsatellites”.

Details in all cases: protein: recombinant;recombinant; tags: His6-NusA removed by HRV3C;His6-NusA removed by HRV3C; copies: 1;1
The target in series [1] is T1, FoxP3 RBR-FKH;NFAT1 (Mus musculus;Mus musculus, UniProt Q99JB6;Q60591 284-423;394-680, |).
T1 sequence 1: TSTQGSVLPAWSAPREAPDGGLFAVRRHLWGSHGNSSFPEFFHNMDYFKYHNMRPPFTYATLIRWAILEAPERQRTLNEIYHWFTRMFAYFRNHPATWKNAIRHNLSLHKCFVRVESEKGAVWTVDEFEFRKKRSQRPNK
T1 sequence 2: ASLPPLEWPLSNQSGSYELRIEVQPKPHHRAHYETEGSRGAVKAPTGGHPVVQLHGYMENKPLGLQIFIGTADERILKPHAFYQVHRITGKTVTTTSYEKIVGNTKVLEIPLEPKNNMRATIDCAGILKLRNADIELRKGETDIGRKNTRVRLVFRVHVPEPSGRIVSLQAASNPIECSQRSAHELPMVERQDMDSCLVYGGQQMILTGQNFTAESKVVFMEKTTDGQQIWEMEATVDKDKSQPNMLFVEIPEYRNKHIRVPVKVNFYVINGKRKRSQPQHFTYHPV
Briefly: EMSA; NFAT 0.4 uM; FoxP3 monomer; EMSA: 20 mM HEPES pH 7.5, 150 mM NaCl, 1.5 mM MgCl2, 2 mM DTT, 4 C, 0.2 uM DNA; pull-down: 20 mM Tris-HCl pH 7.5, 100 mM NaCl, 1.5 mM MgCl2, RT, 0.4 uM protein, 0.1 uM DNA.

Another series addresses T2, FoxP1 RBR-FKH;NFAT1 (Mus musculus;Mus musculus, UniProt P58462;Q60591 427-579;394-680, |).
T2 sequence 1: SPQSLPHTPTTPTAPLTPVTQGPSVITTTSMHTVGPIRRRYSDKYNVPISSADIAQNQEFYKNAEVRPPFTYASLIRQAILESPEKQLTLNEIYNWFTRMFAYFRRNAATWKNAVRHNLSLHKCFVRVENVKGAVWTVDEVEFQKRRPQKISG
T2 sequence 2: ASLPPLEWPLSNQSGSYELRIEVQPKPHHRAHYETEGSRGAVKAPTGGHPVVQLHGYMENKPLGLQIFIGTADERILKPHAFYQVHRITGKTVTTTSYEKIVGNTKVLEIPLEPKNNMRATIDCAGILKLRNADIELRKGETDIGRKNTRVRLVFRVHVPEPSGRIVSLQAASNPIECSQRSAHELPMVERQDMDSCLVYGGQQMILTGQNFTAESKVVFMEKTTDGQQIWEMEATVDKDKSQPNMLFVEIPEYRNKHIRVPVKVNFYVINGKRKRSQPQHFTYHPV
Briefly: EMSA; NFAT 0.4 uM; FoxP1 monomer; EMSA: 20 mM HEPES pH 7.5, 150 mM NaCl, 1.5 mM MgCl2, 2 mM DTT, 4 C, 0.2 uM DNA; pull-down: 20 mM Tris-HCl pH 7.5, 100 mM NaCl, 1.5 mM MgCl2, RT, 0.4 uM protein, 0.1 uM DNA. A general note: In EMSA bound probe runs differently from free probe, usually more slowly.

The target of series [2] is T1, FoxP3 RBR-FKH;NFAT1. Briefly: EMSA; NFAT 0.4 uM; FoxP3 dimer; EMSA: 20 mM HEPES pH 7.5, 150 mM NaCl, 1.5 mM MgCl2, 2 mM DTT, 4 C, 0.2 uM DNA; pull-down: 20 mM Tris-HCl pH 7.5, 100 mM NaCl, 1.5 mM MgCl2, RT, 0.4 uM protein, 0.1 uM DNA.

B1: sFKHM (DNA2) (dsDNA)
DNA 1: TAGGAAAATTTGCCGCGTCGAGTAAACATC
DNA 2: GATGTTTACTCGACGCGGCAAATTTTCCTA
As to B1, the binding result with FoxP3 RBR-FKH;NFAT1 [1] and with FoxP1 RBR-FKH;NFAT1 was “binds” throughout.

B2: IR-FKHM (DNA1) (dsDNA)
DNA 1: TAGGAAAATTTGTTTACTCGAGTAAACATC
DNA 2: GATGTTTACTCGAGTAAACAAATTTTCCTA
Take B2: the binding result in the series with FoxP1 RBR-FKH;NFAT1 and in the series with FoxP3 RBR-FKH;NFAT1 [2] was “binds” in each case.
